The chains are these.
B1: pY0192 VH Y109A (Fab, V domains shown)
VH: EVQLVESGGGLVQPGGSLRLSCAASGYTFTNYGINWVRQAPGKGLEWVGWINTYTGEPTYAADFKRRFTFSLDTSKSTAYLQMNSLRAEDTAVYYCAKYPHYYGSSHWAFDVWGQGTL
VL: DIQLTQSPSSLSASVGDRVTITCRANEQLSNYLNWYQQKPGKAPKVLIYFTSSLHSGVPSRFSGSGSGTDFTLTISSLQPEDFATYYCQQYSTVPWTFGQGTKVEIKR
B2: pY0192 VH F110A (Fab, V domains shown)
VH: EVQLVESGGGLVQPGGSLRLSCAASGYTFTNYGINWVRQAPGKGLEWVGWINTYTGEPTYAADFKRRFTFSLDTSKSTAYLQMNSLRAEDTAVYYCAKYPHYYGSSHWYADVWGQGTL
VL: DIQLTQSPSSLSASVGDRVTITCRANEQLSNYLNWYQQKPGKAPKVLIYFTSSLHSGVPSRFSGSGSGTDFTLTISSLQPEDFATYYCQQYSTVPWTFGQGTKVEIKR
B3: Y0238-10 (Fab, V domains shown)
VH: EVQLVESGGGLVQPGGSLRLSCAASGYTFTNYGINWVRQAPGKGLEWVGWINTYTGEPTYAADFKRRFTFSLDTSKSTAYLQMNSLRAEDTAVYYCAKYPYYRNTSHWYFDVWGQGTL
VL: DIQLTQSPSSLSASVGDRVTITCRANEQLSNYLNWYQQKPGKAPKVLIYFTSSLHSGVPSRFSGSGSGTDFTLTISSLQPEDFATYYCQQYSTVPWTFGQGTKVEIKR
notes: Library YC-81 (VH3) on the pY0192 template; substitutions deduced against Y0192; soluble Fab
B4: Y0238-7 (Fab, V domains shown)
VH: EVQLVESGGGLVQPGGSLRLSCAASGYTFTNYGINWVRQAPGKGLEWVGWINTYTGEPTYAADFKRRFTFSLDTSKSTAYLQMNSLRAEDTAVYYCAKYPYYWGTSHWYFDVWGQGTL
VL: DIQLTQSPSSLSASVGDRVTITCRANEQLSNYLNWYQQKPGKAPKVLIYFTSSLHSGVPSRFSGSGSGTDFTLTISSLQPEDFATYYCQQYSTVPWTFGQGTKVEIKR
notes: as for B3
B5: Y0238-1 (Fab, V domains shown)
VH: EVQLVESGGGLVQPGGSLRLSCAASGYTFTNYGINWVRQAPGKGLEWVGWINTYTGEPTYAADFKRRFTFSLDTSKSTAYLQMNSLRAEDTAVYYCAKYPYYRGTSHWYFDVWGQGTL
VL: DIQLTQSPSSLSASVGDRVTITCRANEQLSNYLNWYQQKPGKAPKVLIYFTSSLHSGVPSRFSGSGSGTDFTLTISSLQPEDFATYYCQQYSTVPWTFGQGTKVEIKR
notes: as for B3
B6: Y0238-3 (Fab, V domains shown)
VH: EVQLVESGGGLVQPGGSLRLSCAASGYTFTNYGINWVRQAPGKGLEWVGWINTYTGEPTYAADFKRRFTFSLDTSKSTAYLQMNSLRAEDTAVYYCAKYPYYYGTSHWYFDVWGQGTL
VL: DIQLTQSPSSLSASVGDRVTITCRANEQLSNYLNWYQQKPGKAPKVLIYFTSSLHSGVPSRFSGSGSGTDFTLTISSLQPEDFATYYCQQYSTVPWTFGQGTKVEIKR
notes: CDRH3 variant (H101Y, S105T) from library YC-81; soluble Fab
B7: Y0243-1 (Fab, V domains shown)
VH: EVQLVESGGGLVQPGGSLRLSCAASGYDFTHYGMNWVRQAPGKGLEWVGWINTYTGEPTYAADFKRRFTFSLDTSKSTAYLQMNSLRAEDTAVYYCAKYPHYYGSSHWYFDVWGQGTL
VL: DIQLTQSPSSLSASVGDRVTITCRANEQLSNYLNWYQQKPGKAPKVLIYFTSSLHSGVPSRFSGSGSGTDFTLTISSLQPEDFATYYCQQYSTVPWTFGQGTKVEIKR
notes: CDRH1 variant (T28D, N31H) from library HL-265; soluble Fab
B8: Y0238-5 (Fab, V domains shown)
VH: EVQLVESGGGLVQPGGSLRLSCAASGYTFTNYGINWVRQAPGKGLEWVGWINTYTGEPTYAADFKRRFTFSLDTSKSTAYLQMNSLRAEDTAVYYCAKYPYYIAKSHWYFDVWGQGTL
VL: DIQLTQSPSSLSASVGDRVTITCRANEQLSNYLNWYQQKPGKAPKVLIYFTSSLHSGVPSRFSGSGSGTDFTLTISSLQPEDFATYYCQQYSTVPWTFGQGTKVEIKR
notes: as for B3

T1 sequence (P15692 other isoform, or with tags, fused parts or gaps limits assumed): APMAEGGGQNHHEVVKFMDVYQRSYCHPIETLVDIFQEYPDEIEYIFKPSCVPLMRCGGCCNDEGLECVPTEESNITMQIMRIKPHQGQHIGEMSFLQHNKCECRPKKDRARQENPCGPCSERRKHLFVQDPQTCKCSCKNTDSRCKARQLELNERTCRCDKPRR

The first experiment addresses T1, VEGF (human, UniProt P15692-4 27-191, limits assumed).
T1 construct: also called human VEGF; vascular endothelial growth factor
Description: competitive phage-ELISA, wt = pY0192.
B1 displayed an IC50 (mut) / IC50 (wt) of 19. Consider B2, for which the IC50 (mut) / IC50 (wt) worked out at 25.

The next experiment deals with T1, VEGF. Description: BIAcore-2000 SPR, wt = Y0192. (In general: In SPR one partner is held on a chip, and binding of the other changes the refractive index at the surface.)
Regarding B3, the “Kd (wt) / Kd (mut)” value stood at 4.8 ratio. In the case of B4, the “Kd (wt) / Kd (mut)” value was no less than 7.3 ratio. Consider B5, for which the “Kd (wt) / Kd (mut)” value was 7.3 ratio. Same read-out and setting: under B6 stands no less than 14 ratio; under B7, 4.1 ratio.

Take B8: the “Kd (wt) / Kd (mut)” value amounted to 3.2 ratio.

The record behind these values is patent EP2336190A2 (Genentech, Inc., dated 2011).
